Molecular target: the molecule itself
Test: SEC

B1: Physcomitrella patens adenosine kinase 1 (PpADK1) (enzyme, UniProt O49923 1-343, looked up)
chain: MASEGVLLGMGNPLLDISCVVDDAFLEKYGLTLNNAILAEDKHLPMYKELAANPDVEYIAGGATQNTIRIAQWMLGESNATSYFGCVGKDEYGDRMFKLASEGGVNIRYDVDEDLPTGTCGVLVVKGERSLVANLSAANKYKIDHLKKPENWAFVEKAKYIYSAGFFLTVSPESMMTVAKHAAETGKYYMINLAAPFICQFFKDPLMELFPYVDFIFGNESEARAFAQVQGWETEDTKVIAVKLAALPKAGGTHKRVAVITQGTDPTIVAEDGKVTEFPVTPIPKEKLVDTNAAGDSFVGGFLSQLVLGKDIAQCVRAGNYAASVIIQRSGCTFPSKPSFESQ
stoichiometry N: 2
